According to patent publication US7871610B2, “Antibodies to Tie1 ectodomain” (Dyax Corp., priority 2003, dated 2011):

Tests used:
Tie1 [1] = biological target: T1, Tie1 (Homo sapiens, UniProt P35590); test: Immunoprecipitation from HUVEC lysates; assay type: binding; parameters: endogenous in cells; host or cells: HUVEC; conditions: 5 μg/ml antibody
Protocol: The conclusion from this study was that platelets represent a large pool of Tie-1 immunoreactivity which could present a problem for development of Tie1 as a therapeutic target. […] Both, activated and inactivated platelets were tested. Anti-Tie-1 antibodies B2, D11, E3, the goat polyclonal AF619 (R&D) and negative control antibodies anti-FITC and anti-Streptavidin were used. HUVECS were retrieved from culture dishes by trypsinization and platelets were prepared with the platelet GelSep kit (Biocytex, Marseille, France) kit according to the guidelines of the manufacturer. Per immunoprecipitation experiment 3-5e10^6 and 3e10^8 cells platelets were used for each antibody tested. Platelets and cells were washed with PBS and spun down at 1400 rpm for 4 minutes and supernatant was removed. Then cells were lysed in 1 ml lysis buffer containing 50 mM Tris HCL pH 7.5, 150 mM NaCl, 0.5% Deoxycholic acid (DOC) and 0.5% NP-40 for 5 minutes. The lysed cells were spin down for 10 minutes at 14.000 rpm and 5 μg/ml antibody was added to the supernatant and incubated at 4° C. on a rotator. 100 μl/sample protein A beads (Uppsala, Sweden) were washed 3 times with lysis buffer (centrifugation speed: 1.5 seconds, 2000 rpm) then cell lysates incubated with antibody were added for 30 minutes 4° C. […] In Western blotting Tie-1 was detected with the polyclonal goat anti-Tie-1 antibody.

Mouse Tie 1-Fc = biological target: T2, Mouse Tie 1-Fc (Mus musculus, UniProt Q06806); test: BIAcore, E3 Fabs on mouse Tie1-Fc; assay type: binding; conditions: Fab, mouse Tie1-Fc
T2 sequence (Q06806 23-755 limits assumed): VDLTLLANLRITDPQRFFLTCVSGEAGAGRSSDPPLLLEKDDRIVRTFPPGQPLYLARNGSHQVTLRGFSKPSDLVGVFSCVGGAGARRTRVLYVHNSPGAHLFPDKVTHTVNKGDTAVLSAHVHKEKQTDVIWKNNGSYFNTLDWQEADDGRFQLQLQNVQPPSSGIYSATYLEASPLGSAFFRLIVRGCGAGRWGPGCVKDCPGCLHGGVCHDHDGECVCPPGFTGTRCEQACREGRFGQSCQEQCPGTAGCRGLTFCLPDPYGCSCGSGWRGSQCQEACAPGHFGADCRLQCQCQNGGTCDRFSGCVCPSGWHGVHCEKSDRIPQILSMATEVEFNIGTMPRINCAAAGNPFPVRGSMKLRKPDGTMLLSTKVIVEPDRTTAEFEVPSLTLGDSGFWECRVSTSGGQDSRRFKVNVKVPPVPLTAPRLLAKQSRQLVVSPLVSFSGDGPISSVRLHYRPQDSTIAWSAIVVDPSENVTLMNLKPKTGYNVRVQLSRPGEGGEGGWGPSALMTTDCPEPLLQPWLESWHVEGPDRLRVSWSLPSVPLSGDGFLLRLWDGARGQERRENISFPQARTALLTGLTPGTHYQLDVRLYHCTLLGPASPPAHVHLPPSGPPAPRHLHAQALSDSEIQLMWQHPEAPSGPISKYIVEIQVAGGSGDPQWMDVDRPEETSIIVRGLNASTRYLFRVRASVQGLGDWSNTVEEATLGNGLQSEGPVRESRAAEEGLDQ
Protocol: Mouse Tie 1-Fc antigen (0.5 mg/ml stock) was biotinylated using established procedures and after dilution 1/100 fold in HBS this was then used for capturing to a streptavidin chip. This was coated to a resonance value of 740RU. All analysis was performed in HBS buffer. The parental Fab E3 0.587 mg/ml (11740 nM) was diluted 1/587 in HBS+BSA to obtain a stock of 20 nM and the germlined Fab E3 0.025 mg/ml (500 nM) was diluted 1/25 in HBS+BSA to obtain a stock of 20 nM. Serial dilutions were made of each Fab preparation to obtain 10 nM, 5 nM, 2.5 nM, and 1.25 nM. For the association phase samples were injected at 30 μl/min for 4 minutes using kinject program. This was followed by a 10 minutes dissociation phase, any remaining sample was stripped from the Tie-1 Fc surface at a flow of 50 μl/min with a single injection of 50 mM NaOH+1 M NaCl for 18 seconds. All samples were run and analyzed in duplicate.
Sensorgrams were analyzed using the simultaneous ka/kd fitting program with 1:1 model in the BIAEVALUATION™ software 3.1.

Tie1 [2] = biological target: T1, Tie1; test: Tie1 phosphorylation assay in transfected COS1 cells; assay type: cell-based; conditions: COS1 cells with V5-tagged full length Tie1, serum starved, E3 IgG 200 ng/ml
Protocol: COS1 cells were transfected with pcDNA3-Tie1-V5. After 24 h of transfection, the cells were serum starved for 8 h and then treated with E3 IgG. For the Tie1 phosphorylation assay, HDMVECs were cultured on 10 cm dishes to near confluence, starved (8-16 h) in serum free medium and stimulated as indicated. After the stimulations, the cells were lysed in lysis buffer (RIPA-DOC: 50 mM Tris-HCl pH 8.0, 150 mM NaCl, 1% Triton-X-100, 0.1% SDS, 0.5% DOC, 10 mM EDTA, supplemented with aprotinin, leupeptin, PMSF and sodium vanadate). Clarified lysates from transfected COS1 cells or HDMVECs were immunoprecipitated with anti-V5 or anti-Tie1 B9, respectively. Proteins were separated by SDS-PAGE, transferred to nitrocellulose and immunoblotted using the anti-phosphotyrosine and anti-Tie1 (R&D systems) antibodies.
To test if the E3 IgG binding to the extracellular region of Tie1 induces autophosphorylation of Tie1, the Tie1 receptor phosphorylation level in response to E3 IgG treatment was studied in transiently transfected COS1 cells and human primary endothelial cells. COS1 cells were transfected with an expression vector containing a V5-tagged full length Tie1 cDNA, and, after serum starvation, the cells were treated with E3 IgG (200 ng/ml). […]

T1 sequence (P35590 22-1138): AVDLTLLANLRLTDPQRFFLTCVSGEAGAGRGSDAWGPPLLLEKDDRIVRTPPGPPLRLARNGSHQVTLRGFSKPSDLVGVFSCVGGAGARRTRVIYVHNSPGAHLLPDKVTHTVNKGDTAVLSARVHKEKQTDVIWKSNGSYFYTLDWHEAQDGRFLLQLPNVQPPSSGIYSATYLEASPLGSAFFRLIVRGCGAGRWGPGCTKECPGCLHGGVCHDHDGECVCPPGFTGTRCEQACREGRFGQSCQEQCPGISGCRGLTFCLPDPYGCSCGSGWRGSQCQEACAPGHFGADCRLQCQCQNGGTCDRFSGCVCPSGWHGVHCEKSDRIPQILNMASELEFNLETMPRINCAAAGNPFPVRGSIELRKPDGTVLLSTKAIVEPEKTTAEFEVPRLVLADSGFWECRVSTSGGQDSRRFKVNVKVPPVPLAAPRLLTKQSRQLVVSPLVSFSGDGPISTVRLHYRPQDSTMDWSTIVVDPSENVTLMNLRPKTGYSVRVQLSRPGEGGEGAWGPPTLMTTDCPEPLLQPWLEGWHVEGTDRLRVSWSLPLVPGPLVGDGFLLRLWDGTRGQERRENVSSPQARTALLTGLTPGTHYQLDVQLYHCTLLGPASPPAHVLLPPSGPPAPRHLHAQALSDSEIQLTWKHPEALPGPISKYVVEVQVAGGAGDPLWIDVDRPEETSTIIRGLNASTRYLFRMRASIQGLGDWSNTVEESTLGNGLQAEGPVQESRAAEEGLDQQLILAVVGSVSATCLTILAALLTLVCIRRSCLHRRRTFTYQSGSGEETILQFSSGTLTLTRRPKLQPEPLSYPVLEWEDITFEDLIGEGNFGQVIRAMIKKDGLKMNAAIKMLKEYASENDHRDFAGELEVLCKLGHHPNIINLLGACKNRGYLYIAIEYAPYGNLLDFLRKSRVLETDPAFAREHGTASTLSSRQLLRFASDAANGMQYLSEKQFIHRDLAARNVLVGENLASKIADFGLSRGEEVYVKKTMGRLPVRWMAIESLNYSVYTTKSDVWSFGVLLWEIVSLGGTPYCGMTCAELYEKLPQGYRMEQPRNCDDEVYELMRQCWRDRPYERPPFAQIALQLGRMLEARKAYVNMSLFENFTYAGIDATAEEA

B1: E3: human anti-Tie1 antibody from Fab phage library; HC SEQ ID NO:114, LC SEQ ID NO:116 (antibody, V domains shown)
VH: EVQLLESGGGLVQPGGSLRLSCAASGFTFSMYGMVWVRQAPGKGLEWVSVISPSGGNTGYADSVKGRFTISRDNSKNTLYLQVNSLRAEDTAVYYCARAPRGYSYGYYYWGQGTLVTVSSASTKGPSVFPLAPSSKSTSGG
VL: DIQMTQSPLSLSASVGDRVTITCRASQGIGHYLAWYQQKPGKVPKLLIYTASTLQSGVPSRFSGSGSGTDFTLTINSLQPEDVATYYCQQFNSYPHTFGQGTRLDIK
modifications: Synthetically generated peptide
- immunoprecipitation of Tie-1 from HUVEC (Tie1 [1]): able to immune precipitate Tie-1 in HUVEC
- effect of germlining on binding activity (Mouse Tie 1-Fc): minimal effect on the binding activity
- time of stimulation after which Tie1 is tyrosine phosphorylated (Tie1 [2]): 10 to 30 min
